Laboratory results reported in publication PMC9482650, “Quantitative fragmentomics allow affinity mapping of interactomes” (Nature Communications, 2022).

Target: T1, MLLT4, P55196
T1 sequence (P55196 1002-1103, limits assumed, looked up): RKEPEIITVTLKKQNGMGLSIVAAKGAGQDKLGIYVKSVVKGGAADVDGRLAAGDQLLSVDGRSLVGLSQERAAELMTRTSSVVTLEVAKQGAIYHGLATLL
Assay: holdup assay
Details: plain residues with an end cap or a label only (N-terminal biotin on a linker: (peg)3)

NLNSSEGVPDLLV [SARS-CoV-E, P59637]
pKd: 4.31
